Test results as given in FireProtDB (doi:10.1111/j.1432-1033.1995.tb20304.x).

Conditions: Hevea brasiliensis, Thermal, DSC, glycine 0.05 M, reversible: yes (~75%), whole UniProt chain shown

B1: Pro-hevein wild type, P02877 (protein)
chain: MNIFIVVLLCLTGVAIAEQCGRQAGGKLCPNNLCCSQWGWCGSTDEYCSPDHNCQSNCKDSGEGVGGGSASNVLATYHLYNSQDHGWDLNAASAYCSTWDANKPYSWRSKYGWTAFCGPVGAHGQSSCGKCLSVTNTGTGAKTTVRIVDQCSNGGLDLDVNVFRQLDTDGKGYERGHITVNYQFVDCGDSFNPLFSVMKSSVIN
pH 1.82
  Tm: 73 °C
  heat capacity change of unfolding: 0.37 kcal/mol/K
  unfolding enthalpy (calorimetric): 121 kJ/mol
  unfolding enthalpy (van 't Hoff): 181 kJ/mol
pH 2.1
  Tm: 74.2 °C
  heat capacity change of unfolding: 0.44 kcal/mol/K
  unfolding enthalpy (calorimetric): 120 kJ/mol
  unfolding enthalpy (van 't Hoff): 174 kJ/mol
pH 2.92
  Tm: 77.8 °C
  heat capacity change of unfolding: 0.5 kcal/mol/K
  unfolding enthalpy (calorimetric): 130 kJ/mol
  unfolding enthalpy (van 't Hoff): 174 kJ/mol
pH 3.2
  Tm: 83.6 °C
  heat capacity change of unfolding: 0.62 kcal/mol/K
  unfolding enthalpy (calorimetric): 142 kJ/mol
  unfolding enthalpy (van 't Hoff): 175 kJ/mol
pH 3.54
  Tm: 84.5 °C
  heat capacity change of unfolding: 0.44 kcal/mol/K
  unfolding enthalpy (calorimetric): 153 kJ/mol
  unfolding enthalpy (van 't Hoff): 174 kJ/mol
pH 3.67
  Tm: 90.1 °C
  heat capacity change of unfolding: 0.45 kcal/mol/K
  unfolding enthalpy (calorimetric): 159 kJ/mol
  unfolding enthalpy (van 't Hoff): 178 kJ/mol
